# Target: TF-mCCP1 (maize (inbred line B73))
# Sequence (Q10716 137-371): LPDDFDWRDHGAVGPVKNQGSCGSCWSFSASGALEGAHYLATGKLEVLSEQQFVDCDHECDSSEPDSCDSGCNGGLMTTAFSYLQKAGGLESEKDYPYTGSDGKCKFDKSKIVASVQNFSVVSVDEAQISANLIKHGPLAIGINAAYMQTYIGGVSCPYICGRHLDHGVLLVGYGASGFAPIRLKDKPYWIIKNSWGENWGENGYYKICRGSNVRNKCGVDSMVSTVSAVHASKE
substance,measurement,value
GST-NIa-Pro (enzyme),"proteolytic activity of recombinant mCCP1 (TF tag removed) on a fluorescein-labeled casein substrate after pre-treatment with 0.5 μM GST-NIa-Pro, against GST",72 % decrease

# Reference: publication PMC10965072
